From the supplement of paper PMC9112550, “Optimization of the antimicrobial peptide Bac7 by deep mutational scanning” (BMC Biology, 2022)

System: Escherichia coli TOP10
Test: shrunken log2 fold change of peptide-encoding DNA abundance (4.5 h post-induction vs induction); higher = less antimicrobial activity (less host growth inhibition)
Conditions: time post-induction: 4.5 h; library: site-saturation at positions 5, 18, 19, 20
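Also: peptides expressed intracellularly from a pBAD plasmid library in pooled LB shake-flask culture, induced with 0.3% L-arabinose, DNA abundance read by NGS, three biological replicates, DESeq2 with apeglm shrinkage.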

Sequence	shrunken log2 fold change
RRIRCRPPRLPRPRPRPAGRPRP	0.373
RRIRCRPPRLPRPRPRPAHEPRP	0.238
RRIRCRPPRLPRPRPRPAHHPRP	-0.222
RRIRCRPPRLPRPRPRPAHLPRP	-0.104
RRIRCRPPRLPRPRPRPAIFPRP	-0.273
RRIRCRPPRLPRPRPRPAIMPRP	-0.0676
RRIRCRPPRLPRPRPRPAKPPRP	-0.144
RRIRCRPPRLPRPRPRPANLPRP	-0.687
RRIRCRPPRLPRPRPRPANSPRP	-0.685
RRIRCRPPRLPRPRPRPARIPRP	0.0785
RRIRCRPPRLPRPRPRPASDPRP	-0.0092
RRIRCRPPRLPRPRPRPATHPRP	-0.0187
RRIRCRPPRLPRPRPRPATQPRP	0.262
RRIRCRPPRLPRPRPRPAVIPRP	-0.383
RRIRCRPPRLPRPRPRPAWHPRP	0.182
RRIRCRPPRLPRPRPRPCAMPRP	-0.103
RRIRCRPPRLPRPRPRPCARPRP	0.174
RRIRCRPPRLPRPRPRPCCAPRP	0.242
RRIRCRPPRLPRPRPRPCCFPRP	-0.155
RRIRCRPPRLPRPRPRPCCPPRP	-0.316

Sequence	shrunken log2 fold change
RRIRCRPPRLPRPRPRPCDNPRP	-0.0831
RRIRCRPPRLPRPRPRPCDPPRP	-0.0532
RRIRCRPPRLPRPRPRPCDYPRP	-0.0812
RRIRCRPPRLPRPRPRPCFCPRP	-0.367
RRIRCRPPRLPRPRPRPCFRPRP	-0.33
RRIRCRPPRLPRPRPRPCHLPRP	-0.206
RRIRCRPPRLPRPRPRPCLCPRP	-0.185
RRIRCRPPRLPRPRPRPCLSPRP	-0.381
RRIRCRPPRLPRPRPRPCMNPRP	-0.627
RRIRCRPPRLPRPRPRPCPCPRP	-1.35
RRIRCRPPRLPRPRPRPCPEPRP	1.16
RRIRCRPPRLPRPRPRPCRMPRP	-0.317
RRIRCRPPRLPRPRPRPCRSPRP	0.118
RRIRCRPPRLPRPRPRPCSAPRP	-0.277
RRIRCRPPRLPRPRPRPCVVPRP	-0.474
RRIRCRPPRLPRPRPRPCWIPRP	-0.464
RRIRCRPPRLPRPRPRPDACPRP	0.175
RRIRCRPPRLPRPRPRPDAKPRP	0.0864
RRIRCRPPRLPRPRPRPDAQPRP	0.456
RRIRCRPPRLPRPRPRPDAWPRP	0.141

Sequence	shrunken log2 fold change
RRIRCRPPRLPRPRPRPDCCPRP	-0.206
RRIRCRPPRLPRPRPRPDCDPRP	-0.812
RRIRCRPPRLPRPRPRPDCHPRP	-0.0697
RRIRCRPPRLPRPRPRPDDCPRP	0.112
RRIRCRPPRLPRPRPRPDDWPRP	0.104
RRIRCRPPRLPRPRPRPDENPRP	-0.0357
RRIRCRPPRLPRPRPRPDETPRP	-0.0127
RRIRCRPPRLPRPRPRPDFEPRP	-0.0276
RRIRCRPPRLPRPRPRPDFKPRP	-0.219
RRIRCRPPRLPRPRPRPDFSPRP	-0.377
RRIRCRPPRLPRPRPRPDFYPRP	-0.629
RRIRCRPPRLPRPRPRPDGQPRP	0.101
RRIRCRPPRLPRPRPRPDIHPRP	-0.468
RRIRCRPPRLPRPRPRPDLFPRP	0.162
RRIRCRPPRLPRPRPRPDLSPRP	0.0851
RRIRCRPPRLPRPRPRPDMGPRP	-0.406
RRIRCRPPRLPRPRPRPDMMPRP	0.00614
RRIRCRPPRLPRPRPRPDNFPRP	-0.489
RRIRCRPPRLPRPRPRPDPNPRP	-0.00486
RRIRCRPPRLPRPRPRPDRAPRP	0.0901
